Source: US20240261333A1, “NOVEL TARGETS FOR ENHANCING ANTI-TUMOR IMMUNITY” (THE BROAD INSTITUTE, INC., priority 2021, published 2024)

T1: B3GNT2 (Homo sapiens, UniProt Q9NY97)
T1 construct: The respective ORFs of candidate genes [CD274 (NM_014143), MCL1 (NM_021960), JUNB (NM_002229), and B3GNT2 (NM_006577)] were synthesized; expressed in transfected cells; host or cells: A375 melanoma cells (lentiviral ORF overexpression)
T1 sequence (Q9NY97 1-397): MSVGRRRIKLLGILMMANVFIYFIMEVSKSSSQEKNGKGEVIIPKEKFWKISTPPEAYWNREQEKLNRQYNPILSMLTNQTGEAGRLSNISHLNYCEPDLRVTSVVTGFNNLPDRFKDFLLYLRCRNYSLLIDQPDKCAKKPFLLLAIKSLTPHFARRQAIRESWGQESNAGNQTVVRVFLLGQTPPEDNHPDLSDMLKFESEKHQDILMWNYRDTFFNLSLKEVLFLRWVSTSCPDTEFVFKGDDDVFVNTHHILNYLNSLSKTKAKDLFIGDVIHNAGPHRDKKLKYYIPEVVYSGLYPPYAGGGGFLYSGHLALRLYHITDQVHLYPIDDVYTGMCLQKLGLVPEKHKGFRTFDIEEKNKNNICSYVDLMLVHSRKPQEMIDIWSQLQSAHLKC


Molecular target: T1, B3GNT2
Test: Co-IP of FLAG-tagged B3GNT2 followed by mass spectrometry
Format: cell-based
Design: C-term IgG / C-term flag: unit not given here
In short: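 FLAG-tagged B3GNT2 immunoprecipitated from cell lysate (HEPES, 1% Triton X-100, 150 mM NaCl) with anti-FLAG versus […], overnight at 4° C, then captured on Protein A/G magnetic beads for 4 h. Two biological replicates per condition. Peptides fractionated and analyzed by nano-LC on an Orbitrap Elite in data-dependent mode.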

[1] = Co-IP followed by mass spectrometry of B3GNT2, C-term tag, FLAG pull-down
[2] = Co-IP followed by mass spectrometry of B3GNT2, C-term tag, IgG pull-down
[3] = Co-IP followed by mass spectrometry of B3GNT2, N-term tag, FLAG pull-down
[4] = Co-IP followed by mass spectrometry of B3GNT2, N-term tag, IgG pull-down

C-term flag [1] | C-term IgG [2] | N-term FLAG [3] | N-term IgG [4] | C-term flag (Co-IP with FLAG antibody, C-terminally FLAG-tagged B3GNT2, mass spectrometry count, unit not given) | N-term FLAG (Co-IP with FLAG antibody, N-terminally FLAG-tagged B3GNT2, mass spectrometry count, unit not given) | C-term IgG (Co-IP with IgG control antibody, C-terminally FLAG-tagged B3GNT2, mass spectrometry count, unit not given) | N-term IgG (Co-IP with IgG control antibody, N-terminally FLAG-tagged B3GNT2, mass spectrometry count, unit not given) | Molecule
35 | 33 | 30 | 28 |  |  |  |  | CPSF6 (protein) MADGVDHIDIYADVGEEFNQEAEYGGHDQIDLYDDVISPSANNGDAPEDRDYMDTLPPTVGDDVGKGAAPNVVYTYTGKRIALYIGNLTWWTTDEDLTEAVHSLGVNDILEIKFFENRANGQSKGFALVGVGSEASSKKLMDLLPKRELHGQNPVVTPCNKQFLSQFEMQSRKTTQSGQMSGEGKAGPPGGSSRAAFPQGGRGRGRFPGAVPGGDRFPGPAGPGGPPPPFPGNLIKHLVKGTRPLFLETRIPWHMGHSIEEIPIFGLKAGQTPPRPPLGPPGPPGPPGPPPPGQVLPPPLAGPPNRGDRPPPPVLFPGQPFGQPPLGPLPPGPPPPVPGYGPPPGPPPPQQGPPPPPGPFPPRPPGPLGPPLTLAPPPHLPGPPPGAPPPAPHVNPAFFPPPTNSGMPTSDSRGPPPTDPYGRPPPYDRGDYGPPGREMDTARTPLSEAEFEEIMNRNRAISSSAISRAVSDASAGDYGSAIETLVTAISLIKQSKVSADDRCKVLISSLQDCLHGIESKSYGSGSRRERSRERDHSRSREKSRRHKSRSRDRHDDYYRERSRERERHRDRDRDRDRERDREREYRHR
5 | 3 | 4 | 5 |  |  |  |  | RBM39 (protein) ADDIDIEAMLEAPYKKDENKLSSANGHEERSKKRKKSKSRSRSHERKRSKSKERKRSRDRERKKSKSRERKRSRSKERRRSRSRSRDRRFRGRYRSPYRRRSRSKSPFRKDKSPVREPIDNLTPEERDARTVFCMQLAARIRPRDLEEFFSTVGKVRDVRMISDRNSRRSKGIAYVEFVDVSSVPLAIGLTGQRVLGVPIIVQASQAEKNRAAAMANNLQKGSAGPMRLYVGSLHFNITEDMLRGIFEPFGRIESIQLMMDSETGRSKGYGFITFSDSECAKKALEQLNGFELAGRPMKVGHVTERTDASSASSFLDSDELERTGIDLGTTGRLQLMARLAEGTGLQIPPAAQQALQMSGSLAFGAVAEFSFVIDLQTRLSQQTEASALAAAASVQPLATQCFQLSNMFNPQTEEEVGWDTEIKDDVIEECNKHGGVIHIYVDKNSAQGNVYVKCPSIAAAIAAVNALHGRWFAGKMITAAYVPLPTYHNLFPDSMTATQLLVPSRR
3 | 0 | 0 | 0 |  |  |  |  | SRP14 (protein) VLLESEQFLTELTRLFQKCRTSGSVYITLKKYDGRTKPIPKKGTVEGFEPADNKCLLRATDGKKKISTVVSSKEVNKFQMAYSNLLRANMDGLKKRDKKNKTKKTKAAAAAAAAAPAAAATAPTTAATTAATAAQ
 |  |  |  | 3 | 0 | 0 | 0 | DDOST (protein) SGPRTLVLLDNLNVRETHSLFFRSLKDRGFELTFKTADDPSLSLIKYGEFLYDNLIIFSPSVEDFGGNINVETISAFIDGGGSVLVAASSDIGDPLRELGSECGIEFDEEKTAVIDHHNYDISDLGQHTLIVADTENLLKAPTIVGKSSLNPILFRGVGMVADPDNPLVLDILTGSSTSYSFFPDKPITQYPHAVGKNTLLIAGLQARNNARVIFSGSLDFFSDSFFNSAVQKAAPGSQRYSQTGNYELAVALSRWVFKEEGVLRVGPVSHHRVGETAPPNAYTVTDLVEYSIVIQQLSNGKWVPFDGDDIQLEFVRIDPFVRTFLKKKGGKYSVQFKLPDVYGVFQFKVDYNRLGYTHLYSSTQVSVRPLQHTQYERFIPSAYPYYASAFSMMLGLFIFSIVFLHMKEKEKSD
10 | 5 | 0 | 4 |  |  |  |  | SERBP1 (protein) PGHLQEGFGCVVTNRFDQLFDDESDPFEVLKAAENKKKEAGGGGVGGPGAKSAAQAAAQTNSNAAGKQLRKESQKDRKNPLPPSVGVVDKKEETQPPVALKKEGIRRVGRRPDQQLQGEGKIIDRRPERRPPRERRFEKPLEEKGEGGEFSVDRPIIDRPIRGRGGLGRGRGGRGRGMGRGDGFDSRGKREFDRHSGSDRSSFSHYSGLKHEDKRGGSGSHNWGTVKDELTESPKYIQKQISYNYSDLDQSNVTEETPEGEEHHPVADTENKENEVEEVKEEGPKEMTLDEWKAIQNKDRAKVEFNIRKPNEGADGQWKKGFVLHKSKSEEAHAEDSVMDHHFRKPANDITSQLEINFGDLGRPGRGGRGGRGGRGRGGRPNRGSRTDKSSASAPDVDDPEAFPALA
3 | 0 | 0 | 0 |  |  |  |  | CSE1L (protein) MELSDANLQTLTEYLKKTLDPDPAIRRPAEKFLESVEGNQNYPLLLLTLLEKSQDNVIKVCASVTFKNYIKRNWRIVEDEPNKICEADRVAIKANIVHLMLSSPEQIQKQLSDAISIIGREDFPQKWPDLLTEMVNRFQSGDFHVINGVLRTAHSLFKRYRHEFKSNELWTEIKLVLDAFALPLTNLFKATIELCSTHANDASALRILFSSLILISKLFYSLNFQDLPEFFEDNMETWMNNFHTLLTLDNKLLQTDLVSNAIQFLASVCERPHYKNLFEDQNTLTSICEKVIVPNMEFRAADEEAFEDNSEEYIRRDLEGSDIDTRRRAACDLVRGLCKFFEGPVTGIFSGYVNSMLQEYAKNPSVNWKHKDAAIYLVTSLASKAQTQKHGITQANELVNLTEFFVNHILPDLKSANVNEFPVLKADGIKYIMIFRNQVPKEHLLVSIPLLINHLQAESIVVHTYAAHALERLFTMRGPNNATLFTAAEIAPFVEILLTNLFKALTLPGSSENEYIMKAIMRSFSLLQEAIIPYIPTLITQLTQKLLAVSKNPSKPHFNHYMFEAICLSIRITCKANPAAVVNFEEALFLVFTEILQNDVQEFIPYVFQVMSLLLETHKNDIPSSYMALFPHLLQPVLWERTGNIPALVRLLQAFLERGSNTIASAAADKIPGLLGVFQKLIASKANDHQGFYLLNSIIEHMPPESVDQYRKQIFILLFQRLQNSKTTKFIKSFLVFINLYCIKYGALALQEIFDGIQPKMFGMVLEKIIIPEIQKVSGNVEKKICAVGITKLLTECPPMMDTEYTKLWTPLLQSLIGLFELPEDDTIPDEEHFIDIEDTPGYQTAFSQLAFAGKKEHDPVGQMVNNPKIHLAQSLHKLSTACPGRVPSMVSTSLNAEALQYLQGYLQAASVTLL
3 | 0 | 0 | 0 |  |  |  |  | HADHB (protein) AAPAVQTKTKKTLAKPNIRNVVVVDGVRTPFLLSGTSYKDLMPHDLARAALTGLLHRTSVPKEVVDYIIFGTVIQEVKTSNVAREAALGAGFSDKTPAHTVTMACISANQAMTTGVGLIASGQCDVIVAGGVELMSDVPIRHSRKMRKLMLDLNKAKSMGQRLSLISKFRFNFLAPELPAVSEFSTSETMGHSADRLAAAFAVSRLEQDEYALRSHSLAKKAQDEGLLSDVVPFKVPGKDTVTKDNGIRPSSLEQMAKLKPAFIKPYGTVTAANSSFLTDGASAMLIMAEEKALAMGYKPKAYLRDFMYVSQDPKDQLLLGPTYATPKVLEKAGLTMNDIDAFEFHEAFSGQILANFKAMDSDWFAENYMGRKTKVGLPPLEKFNNWGGSLSLGHPFGATGCRLVMAAANRLRKEGGQYGLVAACAAGGQGHAMIVEAYPK
3 | 0 | 0 | 0 |  |  |  |  | PUM1 (protein) SVACVLKRKAVLWQDSFSPHLKHHPQEPANPNMPVVLTSGTGSQAQPQPAANQALAAGTHSSPVPGSIGVAGRSQDDAMVDYFFQRQHGEQLGGGGSGGGGYNNSKHRWPTGDNIHAEHQVRSMDELNHDFQALALEGRAMGEQLLPGKKFWETDESSKDGPKGIFLGDQWRDSAWGTSDHSVSQPIMVQRRPGQSFHVNSEVNSVLSPRSESGGLGVSMVEYVLSSSPGDSCLRKGGFGPRDADSDENDKGEKKNKGTFDGDKLGDLKEEGDVMDKTNGLPVQNGIDADVKDFSRTPGNCQNSANEVDLLGPNQNGSEGLAQLTSTNGAKPVEDFSNMESQSVPLDPMEHVGMEPLQFDYSGTQVPVDSAAATVGLFDYNSQQQLFQRPNALAVQQLTAAQQQQYALAAAHQPHIGLAPAAFVPNPYIISAAPPGTDPYTAGLAAAATLGPAVVPHQYYGVTPWGVYPASLFQQQAAAAAAATNSANQQTTPQAQQGQQQVLRGGASQRPLTPNQNQQGQQTDPLVAAAAVNSALAFGQGLAAGMPGYPVLAPAAYYDQTGALVVNAGARNGLGAPVRLVAPAPVIISSSAAQAAVAAAAASANGAAGGLAGTTNGPFRPLGTQQPQPQPQQQPNNNLASSSFYGNNSLNSNSQSSSLFSQGSAQPANTSLGFGSSSSLGATLGSALGGFGTAVANSNTGSGSRRDSLTGSSDLYKRTSSSLTPIGHSFYNGLSFSSSPGPVGMPLPSQGPGHSQTPPPSLSSHGSSSSLNLGGLTNGSGRYISAAPGAEAKYRSASSASSLFSPSSTLFSSSRLRYGMSDVMPSGRSRLLEDFRNNRYPNLQLREIAGHIMEFSQDQHGSRFIQLKLERATPAERQLVFNEILQAAYQLMVDVFGNYVIQKFFEFGSLEQKLALAERIRGHVLSLALQMYGCRVIQKALEFIPSDQQVINEMVRELDGHVLKCVKDQNGNHVVQKCIECVQPQSLQFIIDAFKGQVFALSTHPYGCRVIQRILEHCLPDQTLPILEELHQHTEQLVQDQYGNYVIQHVLEHGRPEDKSKIVAEIRGNVLVLSQHKFASNVVEKCVTHASRTERAVLIDEVCTMNDGPHSALYTMMKDQYANYVVQKMIDVAEPGQRKIVMHKIRPHIATLRKYTYGKHILAKLEKYYMKNGVDLGPICGPPNGII
